Legend:
YY1 = YY1 (UniProt P25490); test: co-IP; details: reference: HA-OTUD3 wild type; sites S326
[1] = molecular target: T1, Flag-tagged YY1 (Yin Yang 1), full length, wild type (UniProt P25490 1-414); test: pull-down; GST or GST-OTUD3 (E. coli) incubated overnight at 4 °C with purified Flag-YY1 or Myc-PLK1 from HEK-293T; Glutathione-Sepharose 4B beads; immunoblot with anti-Flag or anti-Myc; details: both partners purified
T1 construct: Yin Yang 1 (YY1), zinc finger transcription factor, full-length wild type cloned into pCDNA3.1-CMV-Flag-C; The vector name pCDNA3.1-CMV-Flag-C may mean a C-terminal tag; also called Flag-YY1; YY1-WT; source: SW480, transfected, in lysate
T1 sequence (P25490 whole entry): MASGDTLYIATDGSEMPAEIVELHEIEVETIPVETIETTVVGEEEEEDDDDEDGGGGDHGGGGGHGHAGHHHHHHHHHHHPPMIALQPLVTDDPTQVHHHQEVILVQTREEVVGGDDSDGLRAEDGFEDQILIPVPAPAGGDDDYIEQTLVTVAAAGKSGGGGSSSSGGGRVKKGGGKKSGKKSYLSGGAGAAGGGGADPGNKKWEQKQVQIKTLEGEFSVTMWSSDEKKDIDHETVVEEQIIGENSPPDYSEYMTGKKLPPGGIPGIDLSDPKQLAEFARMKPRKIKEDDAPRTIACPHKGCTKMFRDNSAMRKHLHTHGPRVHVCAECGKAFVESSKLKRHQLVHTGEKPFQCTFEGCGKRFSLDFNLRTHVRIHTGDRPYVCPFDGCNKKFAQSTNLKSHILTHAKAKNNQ

[2] = molecular target: T2, Myc-tagged PLK1 (wild-type) (UniProt P53350 1-603); test: as above; details: both partners purified
T2 construct: Polo-like kinase 1 (PLK1), wild type, cloned into pCDNA3.1-CMV-Myc-C; The vector name pCDNA3.1-CMV-Myc-C may mean a C-terminal tag; also called Myc-PLK1; source: SW480, transfected, in lysate
T2 sequence (P53350 whole entry): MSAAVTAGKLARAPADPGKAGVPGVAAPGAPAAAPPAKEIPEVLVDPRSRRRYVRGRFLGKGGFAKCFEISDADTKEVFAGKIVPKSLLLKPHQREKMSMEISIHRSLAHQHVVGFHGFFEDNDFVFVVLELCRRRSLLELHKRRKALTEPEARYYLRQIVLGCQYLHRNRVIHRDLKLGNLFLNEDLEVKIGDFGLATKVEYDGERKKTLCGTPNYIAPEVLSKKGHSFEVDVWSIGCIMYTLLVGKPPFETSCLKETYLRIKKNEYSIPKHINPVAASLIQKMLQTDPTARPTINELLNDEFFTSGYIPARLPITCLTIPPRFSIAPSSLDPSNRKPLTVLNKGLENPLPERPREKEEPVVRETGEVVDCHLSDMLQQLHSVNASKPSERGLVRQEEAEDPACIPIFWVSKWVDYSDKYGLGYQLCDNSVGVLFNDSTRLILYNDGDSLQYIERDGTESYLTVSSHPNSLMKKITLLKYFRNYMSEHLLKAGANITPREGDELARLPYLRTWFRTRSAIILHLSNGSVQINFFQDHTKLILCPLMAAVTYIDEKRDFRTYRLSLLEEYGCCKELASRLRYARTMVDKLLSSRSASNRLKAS

Row | Molecule | binding against the reference (YY1) | binding result [1] | binding result [2]
1 | OTUD3 (from UniProt Q5T2D3) HA-OTUD3 S326A | weaker | – | –
2 | GST-OTUD3 recombinant protein (enzyme, human, UniProt Q5T2D3 1-398, looked up, OTUD3 cloned into the pGEX-6P-1 vector; also called GST-tagged OTUD3; GST-labeled OTUD3; source: Escherichia coli BL21 (DE3), purified (Glutathione Sepharose 4B beads)) MSRKQAAKSRPGSGSRKAEAERKRDERAARRALAKERRNRPESGGGGGCEEEFVSFANQLQALGLKLREVPGDGNCLFRALGDQLEGHSRNHLKHRQETVDYMIKQREDFEPFVEDDIPFEKHVASLAKPGTFAGNDAIVAFARNHQLNVVIHQLNAPLWQIRGTEKSSVRELHIAYRYGEHYDSVRRINDNSEAPAHLQTDFQMLHQDESNKREKIKTKGMDSEDDLRDEVEDAVQKVCNATGCSDFNLIVQNLEAENYNIESAIIAVLRMNQGKRNNAEENLEPSGRVLKQCGPLWEEGGSGARIFGNQGLNEGRTENNKAQASPSEENKANKNQLAKVTNKQRREQQWMEKKKRQEERHRHKALESRGSHRDNNRSEAEANTQVTLVKTFAALNI | – | binds | binds

Source: publication PMC10864350, “Phosphorylation-dependent deubiquitinase OTUD3 regulates YY1 stability and promotes colorectal cancer progression” (Cell Death & Disease, 2024)
